Measurements as given in patent US20210032299A1 (Eli Lilly, published 2021).
Starred links: 1 amine or outer side, 2 acyl side, 3 side chain; linkers in the order of their positions; H or OH if unused. Non-standard residues stand in square brackets, D forms with d. Groups on a side chain read outwards from the residue. No end group written: not given here. *: point of attachment. C20 diacid = O=C(O)CCCCCCCCCCCCCCCCCCC(=O)*; γGlu = O=C(O)[C@H](CCC(=O)[*:2])N[*:1]; αMeL = CC(C)C[C@](C)(N)C(=O)O; AEEA = NCCOCCOCC(=O)O; Aib = CC(C)(N)C(=O)O

molecular target: T1, human glucose-dependent insulinotropic polypeptide (GIP) receptor (human, UniProt P48546 22-466); experiment: SPA, displacement of [125I]-GIP from hGIPR membranes, 0.1% bacitracin
T1 construct: whole, on cells; Assayed as crude membranes of stably transfected CHO cells; also called hGIPR; human GIP receptor
T1 sequence (looked up): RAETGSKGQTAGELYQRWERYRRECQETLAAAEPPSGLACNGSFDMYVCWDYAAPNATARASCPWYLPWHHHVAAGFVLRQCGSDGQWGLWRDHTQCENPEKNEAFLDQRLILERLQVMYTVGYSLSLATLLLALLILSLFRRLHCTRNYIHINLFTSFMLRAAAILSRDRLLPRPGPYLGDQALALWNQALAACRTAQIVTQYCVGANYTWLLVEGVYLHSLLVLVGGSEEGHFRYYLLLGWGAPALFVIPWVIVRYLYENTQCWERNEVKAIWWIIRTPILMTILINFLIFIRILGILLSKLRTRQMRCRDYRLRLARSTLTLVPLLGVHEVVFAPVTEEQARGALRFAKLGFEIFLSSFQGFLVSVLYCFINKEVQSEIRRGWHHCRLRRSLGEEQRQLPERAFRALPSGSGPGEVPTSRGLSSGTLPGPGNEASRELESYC
Protocol: The binding buffer contains 25 mM HEPES, pH 7.4, 2.5 mM CaCl₂, 1 mM MgCl₂, 0.1% (w/v) bacitracin, 0.003% (w/v) TWEEN®-20, and Roche Complete™ Protease Inhibitors without EDTA. […] Plates are sealed and mixed on a plate shaker (setting 6) for 1 minute and read with a PerkinElmer Trilux MicroBeta® scintillation counter after 2.5 to 12 hours of incubation/settling time at room temperature.
Data are analyzed using four-parameter (curve maximum, curve minimum, […], Hill slope) nonlinear regression routines (Genedata Screener, version 12.0.4, Genedata AG, Basal, Switzerland). […] Values for Kᵢ are reported as the geometric mean, with error expressed as the standard error of the mean (SEM) and n is equal to the number of independent replicates (determined in assays performed on different days). Geometric Means are calculated as follows: […]

Binder	Ki [nM]
Y[Aib]EGTFISDYSI[αMeL]LDKIHQ[Aib]DFVEYK([AEEA-AEEA-γGlu-C20 diacid])LEQGPSSGAPPPS-NH2 (N-terminus assumed; SMILES CC[C@H](C)[C@H](NC(=O)[C@H](CCCCN)NC(=O)[C@H](CC(=O)O)NC(=O)[C@H](CC(C)C)NC(=O)[C@](C)(CC(C)C)NC(=O)[C@@H](NC(=O)[C@H](CO)NC(=O)[C@H](Cc1ccc(O)cc1)NC(=O)[C@H](CC(=O)O)NC(=O)[C@H](CO)NC(=O)[C@@H](NC(=O)[C@H](Cc1ccccc1)NC(=O)[C@@H](NC(=O)CNC(=O)[C@H](CCC(=O)O)NC(=O)C(C)(C)NC(=O)[C@@H](N)Cc1ccc(O)cc1)[C@@H](C)O)[C@@H](C)CC)[C@@H](C)CC)C(=O)N[C@@H](Cc1c[nH]cn1)C(=O)N[C@@H](CCC(N)=O)C(=O)NC(C)(C)C(=O)N[C@@H](CC(=O)O)C(=O)N[C@@H](Cc1ccccc1)C(=O)N[C@H](C(=O)N[C@@H](CCC(=O)O)C(=O)N[C@@H](Cc1ccc(O)cc1)C(=O)N[C@@H](CCCCNC(=O)COCCOCCNC(=O)COCCOCCNC(=O)CC[C@H](NC(=O)CCCCCCCCCCCCCCCCCCC(=O)O)C(=O)O)C(=O)N[C@@H](CC(C)C)C(=O)N[C@@H](CCC(=O)O)C(=O)N[C@@H](CCC(N)=O)C(=O)NCC(=O)N1CCC[C@H]1C(=O)N[C@@H](CO)C(=O)N[C@@H](CO)C(=O)NCC(=O)N[C@@H](C)C(=O)N1CCC[C@H]1C(=O)N1CCC[C@H]1C(=O)N1CCC[C@H]1C(=O)N[C@@H](CO)C(N)=O)C(C)C) [Example 92]	0.0331
Y[dA]EGTFISDYSILLDKK([AEEA-AEEA-γGlu-C20 diacid])HQQEFVNWLLAQGPSSGAPPPS-NH2 (N-terminus assumed; SMILES CC[C@H](C)[C@H](NC(=O)[C@H](CO)NC(=O)[C@H](Cc1ccc(O)cc1)NC(=O)[C@H](CC(=O)O)NC(=O)[C@H](CO)NC(=O)[C@@H](NC(=O)[C@H](Cc1ccccc1)NC(=O)[C@@H](NC(=O)CNC(=O)[C@H](CCC(=O)O)NC(=O)[C@@H](C)NC(=O)[C@@H](N)Cc1ccc(O)cc1)[C@@H](C)O)[C@@H](C)CC)C(=O)N[C@@H](CC(C)C)C(=O)N[C@@H](CC(C)C)C(=O)N[C@@H](CC(=O)O)C(=O)N[C@@H](CCCCN)C(=O)N[C@@H](CCCCNC(=O)COCCOCCNC(=O)COCCOCCNC(=O)CC[C@H](NC(=O)CCCCCCCCCCCCCCCCCCC(=O)O)C(=O)O)C(=O)N[C@@H](Cc1c[nH]cn1)C(=O)N[C@@H](CCC(N)=O)C(=O)N[C@@H](CCC(N)=O)C(=O)N[C@@H](CCC(=O)O)C(=O)N[C@@H](Cc1ccccc1)C(=O)N[C@H](C(=O)N[C@@H](CC(N)=O)C(=O)N[C@@H](Cc1c[nH]c2ccccc12)C(=O)N[C@@H](CC(C)C)C(=O)N[C@@H](CC(C)C)C(=O)N[C@@H](C)C(=O)N[C@@H](CCC(N)=O)C(=O)NCC(=O)N1CCC[C@H]1C(=O)N[C@@H](CO)C(=O)N[C@@H](CO)C(=O)NCC(=O)N[C@@H](C)C(=O)N1CCC[C@H]1C(=O)N1CCC[C@H]1C(=O)N1CCC[C@H]1C(=O)N[C@@H](CO)C(N)=O)C(C)C) [Example 13]	0.237
Y[dA]EGTFISDYSILLDKK([AEEA-AEEA-γGlu-C20 diacid])HQQDFVNYLLAQGPSSGAPPPS-NH2 (N-terminus assumed; SMILES CC[C@H](C)[C@H](NC(=O)[C@H](CO)NC(=O)[C@H](Cc1ccc(O)cc1)NC(=O)[C@H](CC(=O)O)NC(=O)[C@H](CO)NC(=O)[C@@H](NC(=O)[C@H](Cc1ccccc1)NC(=O)[C@@H](NC(=O)CNC(=O)[C@H](CCC(=O)O)NC(=O)[C@@H](C)NC(=O)[C@@H](N)Cc1ccc(O)cc1)[C@@H](C)O)[C@@H](C)CC)C(=O)N[C@@H](CC(C)C)C(=O)N[C@@H](CC(C)C)C(=O)N[C@@H](CC(=O)O)C(=O)N[C@@H](CCCCN)C(=O)N[C@@H](CCCCNC(=O)COCCOCCNC(=O)COCCOCCNC(=O)CC[C@H](NC(=O)CCCCCCCCCCCCCCCCCCC(=O)O)C(=O)O)C(=O)N[C@@H](Cc1c[nH]cn1)C(=O)N[C@@H](CCC(N)=O)C(=O)N[C@@H](CCC(N)=O)C(=O)N[C@@H](CC(=O)O)C(=O)N[C@@H](Cc1ccccc1)C(=O)N[C@H](C(=O)N[C@@H](CC(N)=O)C(=O)N[C@@H](Cc1ccc(O)cc1)C(=O)N[C@@H](CC(C)C)C(=O)N[C@@H](CC(C)C)C(=O)N[C@@H](C)C(=O)N[C@@H](CCC(N)=O)C(=O)NCC(=O)N1CCC[C@H]1C(=O)N[C@@H](CO)C(=O)N[C@@H](CO)C(=O)NCC(=O)N[C@@H](C)C(=O)N1CCC[C@H]1C(=O)N1CCC[C@H]1C(=O)N1CCC[C@H]1C(=O)N[C@@H](CO)C(N)=O)C(C)C) [Example 15]	0.471
Y[dA]EGTFISDYSILLDKK([AEEA-AEEA-γGlu-C20 diacid])HQQDFVEWLLAQGPSSGAPPPS-NH2 (N-terminus assumed; SMILES CC[C@H](C)[C@H](NC(=O)[C@H](CO)NC(=O)[C@H](Cc1ccc(O)cc1)NC(=O)[C@H](CC(=O)O)NC(=O)[C@H](CO)NC(=O)[C@@H](NC(=O)[C@H](Cc1ccccc1)NC(=O)[C@@H](NC(=O)CNC(=O)[C@H](CCC(=O)O)NC(=O)[C@@H](C)NC(=O)[C@@H](N)Cc1ccc(O)cc1)[C@@H](C)O)[C@@H](C)CC)C(=O)N[C@@H](CC(C)C)C(=O)N[C@@H](CC(C)C)C(=O)N[C@@H](CC(=O)O)C(=O)N[C@@H](CCCCN)C(=O)N[C@@H](CCCCNC(=O)COCCOCCNC(=O)COCCOCCNC(=O)CC[C@H](NC(=O)CCCCCCCCCCCCCCCCCCC(=O)O)C(=O)O)C(=O)N[C@@H](Cc1c[nH]cn1)C(=O)N[C@@H](CCC(N)=O)C(=O)N[C@@H](CCC(N)=O)C(=O)N[C@@H](CC(=O)O)C(=O)N[C@@H](Cc1ccccc1)C(=O)N[C@H](C(=O)N[C@@H](CCC(=O)O)C(=O)N[C@@H](Cc1c[nH]c2ccccc12)C(=O)N[C@@H](CC(C)C)C(=O)N[C@@H](CC(C)C)C(=O)N[C@@H](C)C(=O)N[C@@H](CCC(N)=O)C(=O)NCC(=O)N1CCC[C@H]1C(=O)N[C@@H](CO)C(=O)N[C@@H](CO)C(=O)NCC(=O)N[C@@H](C)C(=O)N1CCC[C@H]1C(=O)N1CCC[C@H]1C(=O)N1CCC[C@H]1C(=O)N[C@@H](CO)C(N)=O)C(C)C) [Example 14]	0.46
YXEGTXISDYSIXLDKKHQXDFVEXLLETGPSSGAPPPS (Aib2; Iva6; αMeL13; K17((2-[2-(2-Amino-ethoxy)-ethoxy]-acetyl)2-(γ-Glu)-CO-(CH2)18-CO2H); Aib20; 4-Pal25; C-terminal amide) [Example 75]	0.0626
YXEGTXISDYSIXLDXKHQXDFVEXLLETGPSSGAPPPS (Aib2; Iva6; αMeL13; Orn16; K17((2-[2-(2-Amino-ethoxy)-ethoxy]-acetyl)2-(γ-Glu)-CO-(CH2)18-CO2H); Aib20; 4-Pal25; C-terminal amide) [Example 77]	0.0841
